# Source: patent EP4725507A1, “POLYPEPTIDE CONJUGATE, PHARMACEUTICAL COMPOSITION CONTAINING POLYPEPTIDE CONJUGATE AND USE THEREOF” (Nanjing Anji Biotechnology Co., Ltd., priority 2023, dated 2025)
# Like-named read-outs stand apart in the source and are kept apart here. Peptide text beside a SMILES is read from it. * marks the point of attachment. Paclitaxel(2'-O-succinyl) = CC(=O)O[C@H]1C(=O)[C@@]2(C)[C@H]([C@H](OC(=O)c3ccccc3)[C@]3(O)C[C@H](OC(=O)[C@H](OC(=O)CCC(=O)*)[C@@H](NC(=O)c4ccccc4)c4ccccc4)C(C)=C1C3(C)C)[C@]1(OC(C)=O)CO[C@@H]1C[C@@H]2O
# What was measured:
# [1] = tested on: A549 (non-small cell lung cancer cells); assay: Tumor cell proliferation inhibition (CCK8); format: cell-based; conditions: IC50 of free drug / IC50 of polypeptide conjugate
# Excerpt: (§1) Human highly metastatic hepatocellular carcinoma cells HCCLM3, human highly metastatic gastric cancer cells MKN45, human gastric cancer cells BGC-823 and MGC-803, non-small cell lung cancer cells A549, human pancreatic cancer cells ASPC-1, human colon cancer cells LoVo, human ovarian cancer cells A2780, human cervical cancer cells SiHa, human malignant melanoma cells SK-mel-2 and M14, human osteosarcoma cells Saos-2, human bladder transitional cell carcinoma cells T24, human brain glioblastoma cells U87-MG, human lymphoma cells Raji, and human epidermal cancer cells A431 were selected for the experiment. Among them, HCCLM3 cells, MKN45 cells, BGC-823 cells, MGC-803 cells, A431 cells and A549 cells were provided by Nanjing Anji Biotechnology Co., Ltd., and the other cells were provided by Nanjing Ouji Pharmaceutical Technology Service Co., Ltd.
# (§2) The aforementioned tumor cells were preserved in a medium containing 10% fetal bovine serum and 1% penicillin-streptomycin, and incubated at 37°C with 5% CO2 and 95% humidity. The aforementioned tumor cells were cultured in T75 flasks with an experimental cell density of 80%. The aforementioned tumor cell lines were mycoplasma-negative.
# (§3) Tumor cells in the logarithmic growth phase were taken for the experiment. The cells were digested, counted, and prepared into a cell suspension with a concentration of 1×10^5 cells/mL, which was then inoculated into a 96-well plate (100 µL per well). The 96-well plate was incubated in a 37°C, 5% CO2 incubator for 24 hours. […] After incubating the plate in the incubator for 72 h, the cell morphology of each group was observed under a microscope. Then, 10 µL of CCK8 solution (Nanjing Enjing Biotechnology Co., Ltd.) was added to each well, and the plate was further incubated in the cell incubator for 4 h. After incubation, the absorbance was measured at 450 nm, and the tumor cell proliferation inhibition rate was calculated. The efficiency ratio was the ratio of the IC50 value of the free drug to that of the polypeptide conjugate. Table 1 Tumor cell proliferation inhibition rates of polypeptide conjugates
# [2] = tested on: HCCLM3 (human highly metastatic hepatocellular carcinoma cells); assay: Tumor cell proliferation inhibition (CCK8); format: cell-based; conditions: IC50 of free drug / IC50 of polypeptide conjugate
# Excerpt: as §1, §2, §3
# [3] = tested on: A549 cells; assay: Tumor horizontal migration (scratch test); format: cell-based; conditions: 48 h
# Experimental: A549 cells in the logarithmic growth phase were taken, digested with trypsin to prepare a cell suspension, and 1 mL of the cell suspension was inoculated into a 24-well plate with 3.5×10^5 cells per well. The 24-well plate was incubated in a 37°C, 5% CO2 incubator for 24 h, then a scratch was made vertically along the horizontal line at the bottom of the plate using a 200 µL pipette tip (one scratch per well). The original medium was discarded, and the wells were washed twice with 1 mL PBS. A blank group, a positive drug group, and an administration group were set up. […] The cell migration status was photographed at 0 h and 48 h using a microscope (model: CKX31SF, manufacturer: OLYMPUS CORPORATION) at a magnification of 100×. Meanwhile, ImageJ 1.74V was used for quantitative calculation of the number of migrated tumor cells, and the results were expressed as mean ± SD (n = 3).
# [4] = Metabolism in liver microsomes; format: in vitro ADME; conditions: for k / microsomal CLint at 1 µM / half-life at 1 µM: NADPH, 37°C; for microsomal CLint at 1 µM: read-out: CLint(mic); for half-life at 1 µM: read-out: t½
# Experimental: 1.85 mg of DOC-AI (or 1.81 mg of PTX-AI) was precisely weighed, 1 mL of DMSO was added, dissolved and mixed well to obtain 1 mM stock solution. 1 mM stock solution was diluted with methanol to 100 µM working solution for sample incubation. 12.5 µL of 20 mg/mL liver microsomes (mouse-derived, Shanghai Quanyang Trading Co., Ltd., batch number: MIC255038; rat-derived, Shanghai Quanyang Trading Co., Ltd., batch number: MIC254034; dog-derived, Shanghai Quanyang Trading Co., Ltd., batch number: MIC257015; monkey-derived, Ruide Liver Disease Research (Shanghai) Co., Ltd., batch number: SYXS; human-derived, Shanghai Quanyang Trading Co., Ltd., batch number: 1210097), 432.5 µL of 100 mM PBS, 25 µL of 20 mM NADPH, and 25 µL of 100 mM MgCl2 were added into a 96-well plate, and after mixing, pre-incubated at 37°C for 5 min. 5 µL of 100 µM working solution was added to the 96-well plate to initiate the reaction. At the set time points, 50 µL of the reaction sample was taken and placed in an EP tube containing 100 µL of ice-cold acetonitrile, vortexed for inactivation, and stored at -90°C for testing. […] Table 4 Results of detection of DOC-AI metabolism in liver microsomes
# [5] = Solubility in water (HPLC, saturated solution); format: physicochemical; conditions: for solubility thermodynamic at 15 min: in water (ultrapure), HPLC; for Fold Increase: solubility in water of the conjugate versus the free drug (DOC or PTX)
# Experimental: 25, 50, 100, 200, 300, and 400 µL of the above stock solutions were precisely measured, added into 1 mL volumetric flasks, and diluted to the mark with methanol to obtain a series of standard solutions with concentrations of 25, 50, 100, 200, 300, and 400 µg/mL, respectively. The peak areas of the series of standard solutions were detected by HPLC (mobile phase: 0.065% TFA in water + 0.05% TFA; chromatographic column: YMC-Triart C18; wavelength: 220 nm) to construct a concentration-peak area standard curve, where the abscissa represents concentration and the ordinate represents peak area.
# The peak area of the sample was detected by HPLC, and its saturation in water was calculated through the concentration-peak area standard curve. Table 6 Results of detection of solubility of polypeptide conjugates in water
# [6] = Human liver microsomes 0.5 mg/mL
# [7] = Monkey liver microsomes 0.5 mg/mL
# [8] = Mouse liver microsomes 0.5 mg/mL
SMILES,Efficiency Ratios [1],Efficiency Ratios [2],CLint(liver) ([4]; Dog liver microsomes 0.5 mg/mL),Clearance Rate Level ([4]; Dog liver microsomes 0.5 mg/mL),Hepatic Extraction Ratio (EH) ([4]; Dog liver microsomes 0.5 mg/mL),k ([4]; Dog liver microsomes 0.5 mg/mL),microsomal CLint at 1 µM ([4]; Dog liver microsomes 0.5 mg/mL),half-life at 1 µM ([4]; Dog liver microsomes 0.5 mg/mL),"CLint(liver) [4, 6]","Clearance Rate Level [4, 6]","Hepatic Extraction Ratio (EH) [4, 6]","k [4, 6]","microsomal CLint at 1 µM [4, 6]","half-life at 1 µM [4, 6]","CLint(liver) [4, 7]","Clearance Rate Level [4, 7]","Hepatic Extraction Ratio (EH) [4, 7]","k [4, 7]","microsomal CLint at 1 µM [4, 7]","half-life at 1 µM [4, 7]",further results
CC(=O)O[C@@]12CO[C@@H]1C[C@H](O)[C@@]1(C)C(=O)[C@H](O)C3=C(C)[C@@H](OC(=O)[C@H](OC(=O)CCC(=O)N[C@@H](CCCNC(=N)N)C(=O)N[C@@H](CO)C(=O)N4CCC[C@H]4C(=O)N[C@@H](Cc4ccc(O)cc4)C(=O)N[C@@H](C)C(=O)N[C@@H](CC(N)=O)C(=O)N[C@@H](CO)C(=O)O)[C@@H](NC(=O)OC(C)(C)C)c4ccccc4)C[C@@](O)([C@@H](OC(=O)c4ccccc4)[C@H]21)C3(C)C [DOC-AI],1.39,1.63,66.2 mL/min/kg,Medium,0.682,0.0230,45.9 µL/min/mg,30.2 min,23.4 mL/min/kg,Medium,0.531,0.0130,26 µL/min/mg,53.3 min,140 mL/min/kg,High,0.763,0.0520,104 µL/min/mg,13.3 min,"horizontal migration rate ([3]; 1 nM DOC-AI compared with 100 nM DOC): lower than that of 100 nM DOC; horizontal migration of A549 cells ([3]; 100 nM, 10 nM, 1 nM, compared with the blank group): effectively inhibited the horizontal migration of A549 cells in a concentration-dependent manner; CLint(liver) [4, 8]: 324 mL/min/kg; Clearance Rate Level [4, 8]: High; Hepatic Extraction Ratio (EH) [4, 8]: 0.783; k [4, 8]: 0.0410; microsomal CLint at 1 µM [4, 8]: 81.9 µL/min/mg; half-life at 1 µM [4, 8]: 16.9 min; CLint(liver) ([4]; Rat liver microsomes 0.5 mg/mL): 108 mL/min/kg; Clearance Rate Level ([4]; Rat liver microsomes 0.5 mg/mL): Medium; Hepatic Extraction Ratio (EH) ([4]; Rat liver microsomes 0.5 mg/mL): 0.662; k ([4]; Rat liver microsomes 0.5 mg/mL): 0.0301; microsomal CLint at 1 µM ([4]; Rat liver microsomes 0.5 mg/mL): 60.1 µL/min/mg; half-life at 1 µM ([4]; Rat liver microsomes 0.5 mg/mL): 23.1 min; solubility thermodynamic at 15 min [5]: 4430 µg/mL; Fold Increase [5]: 1.62×10^5"
CC(=O)O[C@H]1C(=O)[C@@]2(C)[C@H]([C@H](OC(=O)c3ccccc3)[C@]3(O)C[C@H](OC(=O)[C@H](OC(=O)CCC(=O)N[C@@H](CCCNC(=N)N)C(=O)N[C@@H](CO)C(=O)N4CCC[C@H]4C(=O)N[C@@H](Cc4ccc(O)cc4)C(=O)N[C@@H](C)C(=O)N[C@@H](CC(N)=O)C(=O)N[C@@H](CO)C(=O)O)[C@@H](NC(=O)c4ccccc4)c4ccccc4)C(C)=C1C3(C)C)[C@]1(OC(C)=O)CO[C@@H]1C[C@@H]2O [PTX-AI] ({Paclitaxel(2'-O-succinyl)}-RSPYANS-OH),2.05,3.70,81.4 mL/min/kg,High,0.725,0.0283,56.6 µL/min/mg,24.5 min,26.6 mL/min/kg,Medium,0.562,0.0148,29.5 µL/min/mg,46.9 min,148 mL/min/kg,High,0.772,0.0548,110 µL/min/mg,12.7 min,"CLint(liver) [4, 8]: 405 mL/min/kg; Clearance Rate Level [4, 8]: High; Hepatic Extraction Ratio (EH) [4, 8]: 0.818; k [4, 8]: 0.0511; microsomal CLint at 1 µM [4, 8]: 102 µL/min/mg; half-life at 1 µM [4, 8]: 13.6 min; CLint(liver) ([4]; Rat liver microsomes 0.5 mg/mL): 122 mL/min/kg; Clearance Rate Level ([4]; Rat liver microsomes 0.5 mg/mL): Medium; Hepatic Extraction Ratio (EH) ([4]; Rat liver microsomes 0.5 mg/mL): 0.689; k ([4]; Rat liver microsomes 0.5 mg/mL): 0.0339; microsomal CLint at 1 µM ([4]; Rat liver microsomes 0.5 mg/mL): 67.8 µL/min/mg; half-life at 1 µM ([4]; Rat liver microsomes 0.5 mg/mL): 20.4 min; solubility thermodynamic at 15 min [5]: 5.56 µg/mL; Fold Increase [5]: 46.33"
